From article PMC11153131

Biological target: recombinant LDLR protein, extracellular domain, immobilised on the QCM chip (human) (UniProt P01130)
Assay: quartz crystal microbalance (QCM)

Row | Substance | Kd | koff | kon
1 | GP38, a secreted CCHFV glycoprotein (from UniProt Q8JSZ3 248-519) (natural protein) | 180 nM | – | –
2 | Human Fc-tagged CCHFV Gc (Fc fusion) | 3.3 nM | 5.9e-05 s⁻¹ | 13000 M⁻¹ s⁻¹
3 | unlabelled LDL from human plasma (complex) | 3 nM | 0.00112 s⁻¹ | 255000 M⁻¹ s⁻¹
